T1: CDR1抗原ペプチド(RSSKSLLYSNGNTYLY)
T1 peptide: RSSKSLLYSNGNTYLY

B1: i41SL1-2抗体の重鎖(i41SL1-2-H) (other, not shown: a dimerising Fc or GST)
heavy: QVQLQHSGAELVRPGSSVKVSCKALGYTSTDYEIHWVKQTPVRGLEWIGAIHPGSDVIVYNQKFKGTATLTADKSSSTAYMELRSLTSEDSAVYYCTREGGSVDYVWGQGTLVTVSA
modifications: reduced with 0.2 M β-mercaptoethanol and alkylated with 0.3 M iodoacetamide (positions not stated)
B2: i41SL1-2抗体の軽鎖(i41SL1-2-L) (other, not shown: a dimerising Fc or GST)
light: DIVMTQTQLTLTINIGQPASISCKSSQSLLDSDGKTYLNWLFQRPGQSPKRLIYLVSKLDSGVPDRFTGSGSGTDFTLKISRVEAEDLGVYYCWQGTHFPLTFGAGTKLELRRA
modifications: reduced with 0.2 M β-mercaptoethanol and alkylated with 0.3 M iodoacetamide (positions not stated)

Target: T1, CDR1抗原ペプチド(RSSKSLLYSNGNTYLY)
Assay: cell-based or functional assay

Binder | 回転数(kcat) | 触媒効率(kcat/Km)
B1 | ~0.005 ratio to trypsin | ~0.1 ratio to trypsin
B2 | ~0.005 ratio to trypsin | –

— JP2010011840A (dated 2010)
